Assay [1] addresses T1, human IL-33 (R&D Systems, #3625-IL-010/CF) (human, UniProt O95760 112-270).
T1 construct: Commercial recombinant protein; also called hIL-33; interleukin-33
T1 sequence (looked up): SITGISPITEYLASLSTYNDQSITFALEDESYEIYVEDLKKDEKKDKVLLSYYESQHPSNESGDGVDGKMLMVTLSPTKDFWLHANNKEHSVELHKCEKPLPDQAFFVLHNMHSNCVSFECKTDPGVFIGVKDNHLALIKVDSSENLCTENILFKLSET
Briefly: SPR 25C pH7.4, mAb captured. How it is done:
(§1) Equilibrium dissociation constants (KD values) for IL-33 binding to purified anti-IL-33 monoclonal antibodies were determined using a real-time surface plasmon resonance biosensor using a Biacore 4000 instrument. The Biacore sensor surface was first derivatized by amine coupling with either a polyclonal rabbit anti-mouse antibody (GE, # BR-1008-38) or with a monoclonal mouse anti-human Fc antibody (GE, # BR-1008-39) to capture anti-IL-33 monoclonal antibodies expressed with mouse or with human IgG4 constant regions, respectively. All Biacore binding studies were performed in 0.01M ADA pH 7.4, 0.15M NaCl, 3 mM EDTA, and 0.05% v/v Surfactant Tween-20 (ABS-ET running buffer). […] Association of either hIL-33 or MfIL-33-6His to the captured monoclonal antibody was monitored for 4 minutes and their dissociation in ABS-ET running buffer was monitored for 10 minutes. The effect of reduced pH on the binding of each anti-IL-33 antibody to either hIL-33 or MfIL-33-6His was studied using an in-line pH chase assay format in 0.01M ADA pH 6.0, 0.15M NaCl, 3 mM EDTA, and 0.05% v/v Surfactant Tween-20 (ABS-ET pH6 buffer). To achieve this, association of either hIL-33 or MfIL-33-6His to the captured monoclonal antibody was monitored for 4 minutes in ABS-ET running buffer. Following a 30 second dissociation of either hIL-33 or MfIL-33-6His in ABS-ET running buffer, ABS-ET pH6 buffer was injected for 3 minutes, and the analyte dissociation under the low-pH conditions was measured. All the binding kinetic experiments were performed at both 25° C. and 37° C. Kinetic association (kₐ) and dissociation (kd) constants were determined by fitting the real-time sensorgrams to a 1:1 binding model using Scrubber 2.0c curve fitting software. Binding dissociation equilibrium constants (KD) and dissociative half-lives (t½) were calculated from the kinetic rate constants as: […]

Assay [2] concerns the target T2, pre-formed complex of hIL-33 and captured hST2-MMH (human, UniProt O95760 112-270).
T2 construct: Ligand-receptor complex on the sensor: hST2-MMH captured by anti-myc mAb and saturated with 100 nM hIL-33; also called hIL-33 pre-complexed with hST2-MMH
In words: SPR 25C, 100 nM mAb over hIL-33/hST2-MMH complex. The method, then: The ability of anti-IL-33 antibodies to bind to a pre-formed complex of IL-33 with ST2 was tested using Biacore T-200 instrument equipped with a real-time surface plasmon resonance biosensor. The experiment was performed at 25° C. with a running buffer composed of 0.01M HEPES pH 7.4, 0.15M NaCl, 3 mM EDTA, and 0.05% v/v Surfactant Tween-20 (HBS-ET). […] The captured hST2-MMH surface was then saturated by injecting 100 nM of human IL-33 (hIL-33; R&D Systems, #3625-IL-010/CF) for 3 minutes followed by a 3 minute injection of a 100 nM solution of the anti-IL-33 monoclonal antibody. The real-time binding response was monitored during the entire course of the experiment, and the observed binding response at 3 minutes after injection of anti-IL-33 antibody to the pre-formed complex of hIL-33 and captured hST2-MMH was recorded and tabulated and shown in Table 7. No non-specific binding of anti-IL-33 monoclonal antibody to the anti-myc tag capture surface was observed.

The target in assay [3] is T1, human IL-33 (R&D Systems, …). In words: BLI; hIL-33 pre-mixed with mAb-2 Isotype control 2. The method, then: Binding competition between a panel of different anti-IL-33 monoclonal antibodies was determined using a real time, label-free bio-layer interferometry assay on an Octet® HTX biosensor (ForteBio, A Division of Pall Life Sciences). The experiment was performed at 25° C. using a buffer of 0.01M HEPES pH7.4, 0.15M NaCl, 0.05% v/v Surfactant Tween-20, and 0.1 mg/ml BSA (HBS-ET kinetics buffer) with the plate shaking at a speed of 1000 rpm. To assess whether two antibodies were able to compete with one another for binding to human IL-33, a pre-mix assay format was used where 100 nM of human IL-33 (R&D Systems; #3625-IL-010/CF) was pre-mixed with 500 nM of different anti-IL-33 monoclonal antibodies (subsequently referred to as mAb-2) for at least 2 hours prior to running the binding competition assay. […] Following the capture step, unoccupied anti-mouse Fc polyclonal antibody and anti-human Fc polyclonal antibody on the Octet biosensors were saturated by submerging them for 4 minutes into wells containing 200 μg/mL of a non-specific monoclonal antibody with a mouse Fc or with a human Fc, respectively. Finally, the Octet biosensors were immersed for 4 minutes into wells containing the pre-mixed samples of 100 nM of human IL-33 and 500 nM of mAb-2. At the end of each cycle, the non-covalently captured anti-IL-33 antibodies along with the bound pre-complex of human IL-33 and mAb-2 were removed from the biosensors using three alternate 20 second immersions into 10 mM HCl followed by submerging into HBS-ET kinetics buffer. The biosensors were washed in HBS-ET kinetics buffer in between every step of the experiment. The real-time binding response was monitored during the binding events, and the binding response (in units of nm) at the end of every step was recorded.

Assay [4] has the same target. In words: SPR 37C pH7.4, mAb captured. The method, then: as §1
For assay [5], the target named is T3, cynomolgus monkey IL-33 expressed with a C-terminal hexahistidine tag (cynomolgus monkey).
T3 construct: also called MfIL-33-6His; Mf-IL-33-6His
T3 chain: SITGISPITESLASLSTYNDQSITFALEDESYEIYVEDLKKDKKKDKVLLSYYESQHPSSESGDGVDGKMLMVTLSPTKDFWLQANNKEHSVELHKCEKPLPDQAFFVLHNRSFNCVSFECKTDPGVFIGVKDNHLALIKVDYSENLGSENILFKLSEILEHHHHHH
In words: SPR 37C pH7.4, mAb captured. The method, then:
as §1

The term Kd denotes the free concentration of one partner at which half of the binding sites on the other are occupied at equilibrium, for simple one-to-one binding. Broadly, the koff is a measure of how fast the partners let go of each other. What is called kon is a measure of how fast the partners come together. The term t½ denotes the time in which the quantity being followed falls by half.

B1: H4H9670P (antibody, V domains shown)
VH: EVQLVESGGGLVQPGGSLRLSCAASGFTLSSYAMSWVRQAPGKGLEWVSAISGSGGSTYYADSVKGRFTISRDNSKNSLYLQLNSLRAEDTAVYYCAKTLYTTSWYGGFQHWGQGTLVTVSS
VL: DIQMTQSPSSVSASIGDRVTITCRASQGISSWLAWYQQKPGKVPKLLIYAASSLQSGFPSRFSGSGSGTDFTLTISSLQPEDFATYYCQQTHSFPWTVGQGTKVEIK
notes: Human IgG4 Fc (H4H)
In assay [1], B1 had a Kd of 0.368 nM, a koff of 0.000289 s⁻¹, a kon of 786000 M⁻¹ s⁻¹ and a t½ of 40 min. Also, in assay [2], the “Antibody Binding Response (RU)” value was -1 RU. The “mAb-1 Binding to the Pre-complex of mAb-2 & hIL-33” value (“mAb-1 Binding to the Pre-complex” below) in assay [3] stood at 0.12 nm. In assay [4], this molecule came in with a Kd of 0.676 nM, a koff of 0.000783 s⁻¹, a kon of 1.16e+06 M⁻¹ s⁻¹ and a t½ of 15 min. In assay [5], the Kd was 6.84 nM, the koff is 0.00503 s⁻¹, the kon came to 735000 M⁻¹ s⁻¹ and the t½ stood at 2.3 min.

B2: H4H9666P (antibody, human IgG4, V domains shown)
VH: QVQLVQSGAEVKKPGASVKVSCKASGYTFTSYGISWVRQAPGQGLEWMGWIRAYNGYTNYAQKFQGRVTMTTDTSTNTAYMELRTLNSDDTAVYYCARDRYSGSFHGNFDYWGQGTLVTVSS
VL: DIQMTQSPSSVSASVGDRVTITCRASQGIFSWLAWYQQKPGKAPKVLIYAASNLESGVPSRFSGSGSGTDFTLTISSLQPEDFATYYCQQANSLPLTFGGGTKVEIK
notes: Human IgG4 Fc (H4H)
In assay [1], B2 returned a Kd of 0.551 nM, a koff of 0.00028 s⁻¹, a kon of 508000 M⁻¹ s⁻¹ and a t½ of 41 min. For the same molecule, the “Antibody Binding Response (RU)” value in assay [2] was -1 RU. Besides, in assay [3], the “mAb-1 Binding to the Pre-complex” value worked out at 0.08 nm. Further, in assay [4], the affinity, expressed as Kd, was 0.681 nM; the koff turned out to be 0.00077 s⁻¹; the kon amounted to 1.13e+06 M⁻¹ s⁻¹; the t½ stood at 15 min. In assay [5], this molecule came in with a dissociation constant (Kd) of 32.7 nM, an off-rate constant (koff) of 0.0141 s⁻¹, a kon of 432000 M⁻¹ s⁻¹ and a t½ of 0.8 min.

B3: H4H9665P (antibody, human IgG4, V domains shown)
VH: EVQLVESGGGLVQPGGSLRLSCAASGFTFSNYAMTWVRQAPGKGLEWVSTISGSGDNTYYADSVQGRFTISRGHSKNTLYLQMNSLRAEDTAVYYCAKPTYSRSWYGAFDFWGQGTMVTVSS
VL: DIQMTQSPSSVSASVGDRVTITCRASQGISSWLAWYQQKPGKAPQLLIYAASRLQSGVPSRFWGSGSGTDFTLTISSLQPEDFATYYCQQANNFPFTFGPGTKVDIK
notes: Human IgG4 Fc (H4H)
In assay [1], B3 registered a Kd of 0.533 nM, a koff of 0.000474 s⁻¹, a kon of 888000 M⁻¹ s⁻¹ and a t½ of 24 min. Moreover, in assay [2], the “Antibody Binding Response (RU)” value is 0 RU. Also, in assay [3], the “mAb-1 Binding to the Pre-complex” value came to 0.09 nm. In assay [4], this molecule displayed a Kd of 1.19 nM, a koff of 0.00144 s⁻¹, a kon of 1.21e+06 M⁻¹ s⁻¹ and a t½ of 8 min. In assay [5], this molecule yielded a Kd of 1.91 nM, a koff of 0.0021 s⁻¹, a kon of 1.1e+06 M⁻¹ s⁻¹ and a t½ of 5 min.

B4: H4H9671P (antibody, human IgG4, V domains shown)
VH: EVQLVESGGGLVQPGGSLRLSCAASGFTLRSYFMTWVRQVPGKGLEGVSAISGISGGTYYTDSVKGRFTISRDNSKNTLFLQMNSLRAEDTAVYFCARTVYSSSYYGGFQHWGQGTLVTVSS
VL: DIQMTQSPSSVSVSVGDRVTITCRASQGISSWLAWYQQKPGKAPKLLIYVASSLQSGVPSRFSGSGSGTDFTLTISSLQPEDFATYYCQQTNSFPLTFGGGTKVEIK
notes: Human IgG4 Fc (H4H)
In assay [1], B4 showed a Kd of 0.453 nM, a koff of 0.000349 s⁻¹, a kon of 771000 M⁻¹ s⁻¹ and a t½ of 33 min. Also, in assay [2], the “Antibody Binding Response (RU)” value is -1 RU. Further, the “mAb-1 Binding to the Pre-complex” value in assay [3] came to 0.07 nm. In assay [4], this molecule gave a Kd of 0.938 nM, a koff of 0.00114 s⁻¹, a kon of 1.21e+06 M⁻¹ s⁻¹ and a t½ of 10 min. In assay [5], this molecule had a Kd of 5.08 nM, a koff of 0.00607 s⁻¹, a kon of 1.2e+06 M⁻¹ s⁻¹ and a t½ of 1.9 min.

B5: H4H9667P (antibody, human IgG4, V domains shown)
VH: EVQLVESGGGLVQPGGSLRLSCAASGFTFSTYSMHWVRQAPGKGLEYVSTINNNGDTTYYADSVKGRFTISRDNSKNTLYLQLGSLRPEDMAVYYCARQTYTSSWYGGFDSWGQGTLVTVSS
VL: DIQMTQSPSSVSASVGDRVTITCRASQGITSWLAWYQQKPGKAPKLLIYAASNLQSGVPSRFSGSGSGTDFTLTITSLQPEDFATYYCQQANSLPFTFGPGTKVDIK
notes: Human IgG4 Fc (H4H)
In assay [1], B5 yielded a Kd of 0.395 nM, a koff of 0.000252 s⁻¹, a kon of 637000 M⁻¹ s⁻¹ and a t½ of 46 min. Besides, in assay [2], the “Antibody Binding Response (RU)” value is -1 RU. For the same molecule, the “mAb-1 Binding to the Pre-complex” value in assay [3] worked out at 0.12 nm. In assay [4], this molecule had a Kd of 0.618 nM, a koff of 0.000603 s⁻¹, a kon of 976000 M⁻¹ s⁻¹ and a t½ of 19 min. Also, in assay [5], the Kd was 4.66 nM, the koff turned out to be 0.00317 s⁻¹, the kon is 681000 M⁻¹ s⁻¹ and the t½ was 4 min.
